# Assay results published in the DeepSol protein solubility set.
# Assay: soluble on expression in E. coli; label from the status in PepcDB or PDB records
row,Sequence,soluble on expression in E. coli
1,APGAGPGVRRRQRSLEEIPRLGQLRFFFQLFVQGYALQLHQLQVLYKAKYGPMWMSYLGPQMHVNLASAPLLEQVMRQEGKYPVRNDMELWKEHRDQHDLTYGPFTTEGHHWYQLRQALNQRLLKPAEAALYTDAFNEVIDDFMTRLDQLRAESASGNQVSDMAQLFYYFALEAICYILFEKRIGCLQRSIPEDTVTFVRSIGLMFQNSLYATFLPKWTRPVLPFWKRYLDGWNAIFSFGKKLIDEKLEDMEAQLQAAGPDGIQVSGYLHFLLASGQLSPREAMGSLPELLMAGVDTTSNTLTWALYHLSKDPEIQEALHEEVVGVVPAGQVPQHKDFAHMPLLKAVLKETLRLYPVVPTNSRIIEKEIEVDGFLFPKNTQFVFCHYVVSRDPTAFSEPESFQPHRWLRNSQPATPRIQHPFGSVPFGYGVRACLGRRIAELEMQLLLARLIQKYKVVLAPETGELKSVARIVLVPNKKVGLQFLQRQC,not soluble
2,SLSMKLLIADDEDTIRNGIAKYIKLHTDRFSQIYLAENGQQALDIILQYQPDMMLLDVQMPLKTGLEVLQEAQKLSLVPKTIILSGYDDFEYARKALRYGAKDYLLKPCRSSEILEAINKLVQEQLGTKEDVECEEGTGIHYIVSSAIEYMEEYYHKNLTLIEVSNKVGITAGYLSTLFTQNMNCGFVEYLNKIRIKHACSYLEQNYFKTYEIAYKVGFKDEKYFSKVFKKETGITPYEYRRDHSIGKNIRTEG,soluble
3,MPPKLRNFDKSMEKYTDVVLVVKQERFYVSRAILSEHCTYFQSLFCGDSNYQEHIISDVEPQDFQKFLEVVHGEPAIFEATVQKILPLAQKFGSKTVLQKCERFLITISTVRLSTKWNLAKQYGLDELQAHCKLEFKTAQIVRKNPQPEPKSLAYSDKFIFDHSFEKVDGLAEGDMRRSQPITHLDFTWTIYITRKNQHLRVSLCCGKAHLTSDWTVRADFKMTLTAKGSPDLVSDTKGFFHLDSEKNFYWELGQEVEWDEIRDKCLADGKLEVETRVRIVKIRELPVEEFKPPRIVTVNAVKSYEGVLSDYIRVTPLTQQAKTSAPAETPDLQTPPRQQASAKPQASPAKSAGAPQLPQKVPLFPSGGAPSSPSAPEAPSEPPPPKIYPTLGANAPPAPPVQGKKFILKNVFGNVEAMKCHTAMACQKAVAYDFEWNLIISQKNNRLHVSLCCSKSNVTSEFRILADFELIIAGKNGGRPLKSKTNGCFNIEKTKNSSQELGQDVEWSTIVYDYMVDGRLTVEAHVNITRVTCLDAPKFKKLRNFDATGNSWDVMLIVAGQRFFVLKEILISNSARFKNIISKINFTAAPSTEIKLPDSSADHFQNFLEACYGDPSINDDTVHGILKIAQSYEAAGIVKRCEEYVIKYSKKTLEQKEKLAKHHNLKTLKAHCDYWKSRRKCC,not soluble
4,MPKLSAFYYQVLEDFGYIYDSSITVPPVPVPVWPYTLDYKISHECKSGTCPSRTFPGVWEVPLNTHYVEGYEGGHCPYLDQCVLHNLDEEEVFQWLQEDFSRYYEQNKAPYMMPFHTNWFQTKPLENGLHKFLDWALELLEHHHHHH,not soluble
5,MQVEVGQIVNTHGIKGEVKVKSNSDFTDTRFQPGEVLTVNHQNHEEQLTVLSYRVHKGFHMLKFEGINNINDVEQYKGDYLYQERDHEDIELAENEYYYSDIIGSTVFDNDNQPIGRVINIFETGANDVWVVKGEKEYLIPYIADVVKEIDIENKTIRITPMEGLLDLEHHHHHH,soluble
6,MRMEAGEAAPPAGAGGRATGGWGKWVRLNVGGTVFLTTRQTLCREQKSFLSRLCQGEELQSDRDETGAYLIDRDPTYFGPILNFLRHGKLVLDKDMAEEGVLEEAEFYNIGPLIRIIKDRMEEKDYTVTQVPPKHVYRVLQCQEEELTQMVSTMSDGWRFEQLVNIGSSYNYGSEDQAEFLCVVSKELHSTPNGLSSESSRKTKSTEEQLEEQQQQEEEVEEVEVEQVQVEADAQEKGAANPQEDDC,soluble
7,MGSDKIHHHHHHMVTYAGKLVLAPMVRAGELPTRLMALAHGADLVWSPEIIDKKLIQCVRKENTALQTVDYVVPSKVQTRPETLVFRTYPKLESSKLIFQIGSASPALATQAALKVINDVSGIDINAGCPKHFSIHSGMGSALLRTPDTLCLILKELVKNVGNPHSKPISVKIRLLDTKQDTLQLVKRLCATGITNLTVHCRKTEMRNREQPITDYIAEIYEICQANNVSLIVNGAIRDRSHFHDLQANHWKNTNIGGMIAECAERDPTVFDHTSKPSEDGPSWVVACREFIQWATKFDNHIGNTKYMLSRIVPGKSVFFQYFARCKSPEEVSFVLKQLNDDGSAQTDPSEYLENCRAQEKALKNANAIAKQKRKQTDHIGSDTKKQKVVPLPTDI,not soluble
